One test deals with mCherry-BNIP3 (WT). Description: immunoblot for dimers; immunoblot analysis of WT or OMP25C hybrids of BNIP3 and NIX expressed in B/N DKO cells. (In general: In western blotting, separated proteins are transferred to a membrane and probed.)
In the next test the target is mCherry-NIX (WT) (UniProt O60238). The test is described as above.

mCherry-BNIP3 (WT) (natural protein), sequence (Q12983 whole entry): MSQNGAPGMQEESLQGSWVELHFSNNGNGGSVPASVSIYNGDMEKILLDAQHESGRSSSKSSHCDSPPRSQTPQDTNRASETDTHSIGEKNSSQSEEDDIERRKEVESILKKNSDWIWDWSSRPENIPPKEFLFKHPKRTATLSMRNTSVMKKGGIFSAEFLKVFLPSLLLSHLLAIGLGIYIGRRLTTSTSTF
mCherry-NIX (WT), O60238 1-219 (natural protein; other documents disagree on this pair), sequence (O60238 whole entry): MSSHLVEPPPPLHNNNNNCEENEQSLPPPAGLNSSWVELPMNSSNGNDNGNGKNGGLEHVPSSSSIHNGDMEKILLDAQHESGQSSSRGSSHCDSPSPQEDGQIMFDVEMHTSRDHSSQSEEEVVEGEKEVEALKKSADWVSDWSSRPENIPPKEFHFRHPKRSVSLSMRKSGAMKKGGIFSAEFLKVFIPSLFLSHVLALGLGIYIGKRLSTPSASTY

The term stoichiometry N denotes a count of units in the complex or per binding partner. In turn, mCherry-BNIP3 (WT) (natural protein) displayed a stoichiometry N with mCherry-BNIP3 (WT) of 2.
As for “mCherry-NIX (WT), O60238 1-219 (natural protein; other documents disagree on this pair)”, the stoichiometry N with mCherry-NIX (WT) was found to be 2.
